Data from article PMC2756588.

T1: Hof1, Q05080
T1 sequence (Q05080 590-669, looked up): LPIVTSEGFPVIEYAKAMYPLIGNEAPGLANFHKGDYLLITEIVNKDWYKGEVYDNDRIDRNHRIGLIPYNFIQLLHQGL

T2: Myo5, Q04439
T2 sequence (Q04439 1072-1160, looked up): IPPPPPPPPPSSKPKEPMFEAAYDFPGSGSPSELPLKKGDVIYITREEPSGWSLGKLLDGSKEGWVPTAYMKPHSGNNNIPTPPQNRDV

T3: Lsb4, P32793
T3 sequence (P32793 402-468, looked up): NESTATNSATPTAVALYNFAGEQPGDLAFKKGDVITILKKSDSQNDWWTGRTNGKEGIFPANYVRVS

T4: Pin3, Q06449
T4 sequence (Q06449 53-122, looked up): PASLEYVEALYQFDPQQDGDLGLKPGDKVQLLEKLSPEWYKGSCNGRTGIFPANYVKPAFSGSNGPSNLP

T5: Bbc1, P47068
T5 sequence (P47068 1-78, looked up): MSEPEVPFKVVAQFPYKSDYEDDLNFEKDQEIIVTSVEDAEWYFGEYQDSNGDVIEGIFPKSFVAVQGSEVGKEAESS

T6: Cyk3, Q07533
T6 sequence (Q07533 1-83, looked up): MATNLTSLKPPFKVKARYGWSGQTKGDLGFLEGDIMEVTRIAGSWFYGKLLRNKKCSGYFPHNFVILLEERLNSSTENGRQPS

T7: Bud14, P27637
T7 sequence (P27637 247-328, looked up): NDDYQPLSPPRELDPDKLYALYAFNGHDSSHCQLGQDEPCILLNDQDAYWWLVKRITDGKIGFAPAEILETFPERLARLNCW

T8: Hse1, P38753
T8 sequence (P38753 208-285, looked up): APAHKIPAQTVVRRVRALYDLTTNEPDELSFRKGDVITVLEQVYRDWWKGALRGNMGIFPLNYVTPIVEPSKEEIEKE

T9: Bzz1-2, P38822
T9 sequence (P38822 568-633, looked up): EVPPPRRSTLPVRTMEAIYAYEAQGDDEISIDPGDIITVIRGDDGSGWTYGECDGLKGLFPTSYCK

T10: Lsb3, P43603
T10 sequence (P43603 385-451, looked up): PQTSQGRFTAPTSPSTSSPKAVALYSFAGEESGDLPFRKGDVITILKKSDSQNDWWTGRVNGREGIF

T11: Pex13, P80667
T11 sequence (P80667 295-386, looked up): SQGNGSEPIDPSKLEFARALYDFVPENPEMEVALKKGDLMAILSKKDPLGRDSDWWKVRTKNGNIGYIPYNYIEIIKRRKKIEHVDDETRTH

T12: Bzz1-1, P38822
T12 sequence (P38822 478-572, looked up): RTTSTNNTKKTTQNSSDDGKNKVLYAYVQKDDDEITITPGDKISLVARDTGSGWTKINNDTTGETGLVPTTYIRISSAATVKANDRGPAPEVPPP

T13: Boi2, P39969
T13 sequence (P39969 32-116, looked up): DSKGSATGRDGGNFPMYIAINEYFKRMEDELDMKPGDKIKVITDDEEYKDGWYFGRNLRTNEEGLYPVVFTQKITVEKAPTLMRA

T14: Boi1, P38041
T14 sequence (P38041 1-86, looked up): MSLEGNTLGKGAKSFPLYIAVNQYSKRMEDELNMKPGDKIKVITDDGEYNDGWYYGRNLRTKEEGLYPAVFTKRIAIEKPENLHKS

T15: Sla1-3, P32790
T15 sequence (P32790 344-424, looked up): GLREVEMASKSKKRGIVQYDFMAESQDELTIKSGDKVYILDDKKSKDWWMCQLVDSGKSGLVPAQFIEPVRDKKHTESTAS

T16: Abp1, P15891
T16 sequence (P15891 535-592, looked up): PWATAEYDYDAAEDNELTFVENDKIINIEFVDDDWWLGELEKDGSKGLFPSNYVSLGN

T17: Sla1-2, P32790
T17 sequence (P32790 60-140, looked up): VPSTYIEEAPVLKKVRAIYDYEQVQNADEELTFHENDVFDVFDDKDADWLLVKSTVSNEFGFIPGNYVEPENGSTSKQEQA

T18: Fus1, P11710
T18 sequence (P11710 432-512, looked up): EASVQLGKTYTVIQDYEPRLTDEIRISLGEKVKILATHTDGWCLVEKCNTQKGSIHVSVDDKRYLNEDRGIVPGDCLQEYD

T19: Nbp2, Q12163
T19 sequence (Q12163 103-180, looked up): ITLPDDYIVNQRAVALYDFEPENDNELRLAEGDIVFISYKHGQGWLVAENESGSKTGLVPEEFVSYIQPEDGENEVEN

T20: Cdc25, P04821
T20 sequence (P04821 50-136, looked up): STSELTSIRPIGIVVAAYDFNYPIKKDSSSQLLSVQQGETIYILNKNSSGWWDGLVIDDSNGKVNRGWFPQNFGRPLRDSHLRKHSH

T21: Lsb1, P53281
T21 sequence (P53281 45-122, looked up): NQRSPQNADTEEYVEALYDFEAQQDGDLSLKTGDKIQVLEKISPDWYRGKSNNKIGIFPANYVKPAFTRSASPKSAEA


What was measured:
Assay in all cases: SPOT array
Hof1, Q05080 = molecular target: T1, Hof1, Q05080; conditions: median of control spots 4086
GST = conditions: median of control spots 978
Myo5, Q04439 = molecular target: T2, Myo5, Q04439; conditions: median of control spots 471
Lsb4, P32793 = molecular target: T3, Lsb4, P32793; conditions: median of control spots 397
Pin3, Q06449 = molecular target: T4, Pin3, Q06449; conditions: median of control spots 2171
Bbc1, P47068 = molecular target: T5, Bbc1, P47068; conditions: median of control spots 796
Myo3, P36006 = conditions: median of control spots 468
Cyk3, Q07533 = molecular target: T6, Cyk3, Q07533; conditions: median of control spots 1451
Sho1, P40073 = conditions: median of control spots 1148
Bem1-1, P29366 = conditions: median of control spots 4282
Bud14, P27637 = molecular target: T7, Bud14, P27637; conditions: median of control spots 956
Rvs167, P39743 = conditions: median of control spots 2707
Hse1, P38753 = molecular target: T8, Hse1, P38753; conditions: median of control spots 1727
Bzz1-2, P38822 = molecular target: T9, Bzz1-2, P38822; conditions: median of control spots 4538
Lsb3, P43603 = molecular target: T10, Lsb3, P43603; conditions: median of control spots 406
Pex13, P80667 = molecular target: T11, Pex13, P80667; conditions: median of control spots 1341
Bzz1-1, P38822 = molecular target: T12, Bzz1-1, P38822; conditions: median of control spots 4446
Boi2, P39969 = molecular target: T13, Boi2, P39969; conditions: median of control spots 1161
Boi1, P38041 = molecular target: T14, Boi1, P38041; conditions: median of control spots 1162
Sla1-3, P32790 = molecular target: T15, Sla1-3, P32790; conditions: median of control spots 5475
Abp1, P15891 = molecular target: T16, Abp1, P15891; conditions: median of control spots 935
Sla1-2, P32790 = molecular target: T17, Sla1-2, P32790; conditions: median of control spots 712
Fus1, P11710 = molecular target: T18, Fus1, P11710; conditions: median of control spots 1200
Nbp2, Q12163 = molecular target: T19, Nbp2, Q12163; conditions: median of control spots 357
Bem1-2, P29366 = conditions: median of control spots 4347
Cdc25, P04821 = molecular target: T20, Cdc25, P04821; conditions: median of control spots 969
Lsb1, P53281 = molecular target: T21, Lsb1, P53281; conditions: median of control spots 388

Chain of Sho1, P40073 (P40073 287-367): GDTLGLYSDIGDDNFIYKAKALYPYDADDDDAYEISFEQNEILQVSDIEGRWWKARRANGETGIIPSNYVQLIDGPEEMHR
Chain of Rvs167, P39743 (P39743 419-482): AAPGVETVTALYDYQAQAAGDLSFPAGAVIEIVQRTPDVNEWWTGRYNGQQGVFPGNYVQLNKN
Chain of Bem1-2, P29366 (P29366 139-227): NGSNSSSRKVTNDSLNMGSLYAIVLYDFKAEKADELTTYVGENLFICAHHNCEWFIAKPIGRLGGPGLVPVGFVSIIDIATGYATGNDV
Chain of Bem1-1, P29366 (P29366 55-141): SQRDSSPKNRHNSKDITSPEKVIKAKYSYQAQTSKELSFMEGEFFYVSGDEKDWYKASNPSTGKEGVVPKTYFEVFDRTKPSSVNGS

SPOT intensity (Hof1, Q05080) | SPOT intensity (GST) | SPOT intensity (Myo5, Q04439) | SPOT intensity (Lsb4, P32793) | SPOT intensity (Pin3, Q06449) | SPOT intensity (Bbc1, P47068) | SPOT intensity (Myo3, P36006) | SPOT intensity (Cyk3, Q07533) | SPOT intensity (Sho1, P40073) | SPOT intensity (Bem1-1, P29366) | SPOT intensity (Bud14, P27637) | SPOT intensity (Rvs167, P39743) | SPOT intensity (Hse1, P38753) | SPOT intensity (Bzz1-2, P38822) | SPOT intensity (Lsb3, P43603) | SPOT intensity (Pex13, P80667) | SPOT intensity (Bzz1-1, P38822) | SPOT intensity (Boi2, P39969) | SPOT intensity (Boi1, P38041) | SPOT intensity (Sla1-3, P32790) | Binder | also measured
5 | 0 | 0 | 0 | 0 | 39 | 0 | 0 | 61 | 0 | 3 | 0 | 19 | 3 | 0 | 4 | 0 | 0 | 3 | 20 | KRRTSLFPWLHKPGI | SPOT intensity (Abp1, P15891): 25; SPOT intensity (Sla1-2, P32790): 0; SPOT intensity (Fus1, P11710): 31; SPOT intensity (Nbp2, Q12163): 57; SPOT intensity (Bem1-2, P29366): 0; SPOT intensity (Cdc25, P04821): 18; SPOT intensity (Lsb1, P53281): 0
9 | 0 | 0 | 0 | 0 | 14 | 0 | 1 | 19 | 0 | 26 | 1 | 9 | 2 | 0 | 0 | 0 | 0 | 6 | 34 | RRLRDKYKLPIVDAD | SPOT intensity (Abp1, P15891): 18; SPOT intensity (Sla1-2, P32790): 0; SPOT intensity (Fus1, P11710): 58; SPOT intensity (Nbp2, Q12163): 7; SPOT intensity (Bem1-2, P29366): 2; SPOT intensity (Cdc25, P04821): 18; SPOT intensity (Lsb1, P53281): 48

Second part, the binder before the results:

Binder | SPOT intensity (Hof1, Q05080) | SPOT intensity (GST) | SPOT intensity (Myo5, Q04439) | SPOT intensity (Lsb4, P32793) | SPOT intensity (Pin3, Q06449) | SPOT intensity (Bbc1, P47068) | SPOT intensity (Myo3, P36006) | SPOT intensity (Cyk3, Q07533) | SPOT intensity (Sho1, P40073) | SPOT intensity (Bem1-1, P29366) | SPOT intensity (Bud14, P27637) | SPOT intensity (Rvs167, P39743) | SPOT intensity (Hse1, P38753) | SPOT intensity (Bzz1-2, P38822) | SPOT intensity (Lsb3, P43603) | SPOT intensity (Pex13, P80667) | SPOT intensity (Bzz1-1, P38822) | SPOT intensity (Boi2, P39969) | SPOT intensity (Boi1, P38041) | SPOT intensity (Sla1-3, P32790) | also measured
KLSRGRYGLPLSSRP | 8 | 0 | 0 | 0 | 7 | 9 | 1 | 0 | 31 | 1 | 4 | 3 | 10 | 7 | 4 | 3 | 0 | 1 | 4 | 31 | SPOT intensity (Abp1, P15891): 26; SPOT intensity (Sla1-2, P32790): 1; SPOT intensity (Fus1, P11710): 3; SPOT intensity (Nbp2, Q12163): 2; SPOT intensity (Bem1-2, P29366): 0; SPOT intensity (Cdc25, P04821): 12; SPOT intensity (Lsb1, P53281): 175
TKRKRPARLIFYDSK | 4 | 1 | 3 | 7 | 0 | 308 | 7 | 7 | 91 | 0 | 29 | 0 | 11 | 5 | 6 | 1 | 0 | 9 | 39 | 33 | SPOT intensity (Abp1, P15891): 157; SPOT intensity (Sla1-2, P32790): 2; SPOT intensity (Fus1, P11710): 29; SPOT intensity (Nbp2, Q12163): 183; SPOT intensity (Bem1-2, P29366): 6; SPOT intensity (Cdc25, P04821): 61; SPOT intensity (Lsb1, P53281): 4
WRPRIVPILPYITRL | 770 | 0 | 0 | 6 | 8 | 87 | 0 | 0 | 3 | 0 | 2 | 36 | 11 | 0 | 0 | 10 | 0 | 0 | 0 | 9 | SPOT intensity (Abp1, P15891): 10; SPOT intensity (Sla1-2, P32790): 0; SPOT intensity (Fus1, P11710): 8; SPOT intensity (Nbp2, Q12163): 1; SPOT intensity (Bem1-2, P29366): 94; SPOT intensity (Cdc25, P04821): 14; SPOT intensity (Lsb1, P53281): 22
NFFRKKLGIPRKLKR | 29 | 0 | 0 | 1 | 7 | 101 | 3 | 4 | 107 | 1 | 43 | 3 | 130 | 7 | 1 | 14 | 0 | 2 | 14 | 58 | SPOT intensity (Abp1, P15891): 99; SPOT intensity (Sla1-2, P32790): 0; SPOT intensity (Fus1, P11710): 219; SPOT intensity (Nbp2, Q12163): 72; SPOT intensity (Bem1-2, P29366): 13; SPOT intensity (Cdc25, P04821): 138; SPOT intensity (Lsb1, P53281): 234
